# In publication PMC10540216, “Activity Guided Azide-methyllysine Photo-trapping for Substrate Profiling of Lysine Demethylases” (Journal of the American Chemical Society, 2023):
# B1: LMNB2_HUMAN (protein, UniProt Q03252 1-617, looked up)
# Lamin-B2: MSPPSPGRRREQRRPRAAATMATPLPGRAGGPATPLSPTRLSRLQEKEELRELNDRLAHYIDRVRALELENDRLLLKISEKEEVTTREVSGIKALYESELADARRVLDETARERARLQIEIGKLRAELDEVNKSAKKREGELTVAQGRVKDLESLFHRSEVELAAALSDKRGLESDVAELRAQLAKAEDGHAVAKKQLEKETLMRVDLENRCQSLQEELDFRKSVFEEEVRETRRRHERRLVEVDSSRQQEYDFKMAQALEELRSQHDEQVRLYKLELEQTYQAKLDSAKLSSDQNDKAASAAREELKEARMRLESLSYQLSGLQKQASAAEDRIRELEEAMAGERDKFRKMLDAKEQEMTEMRDVMQQQLAEYQELLDVKLALDMEINAYRKLLEGEEERLKLSPSPSSRVTVSRATSSSSGSLSATGRLGRSKRKRLEVEEPLGSGPSVLGTGTGGSGGFHLAQQASASGSVSIEEIDLEGKFVQLKNNSDKDQSLGNWRIKRQVLEGEEIAYKFTPKYILRAGQMVTVWAAGAGVAHSPPSTLVWKGQSSWGTGESFRTVLVNADGEEVAMRTVKKSSVMRENENGEEEEEEAEFGEEDLFHQQGDPRTTSRGC
# B2: NU107_HUMAN (protein, UniProt P57740 1-925, looked up)
# Nuclear pore complex protein …: MDRSGFGEISSPVIREAEVTRTARKQSAQKRVLLQASQDENFGNTTPRNQVIPRTPSSFRQPFTPTSRSLLRQPDISCILGTGGKSPRLTQSSGFFGNLSMVTNLDDSNWAAAFSSQRSGLFTNTEPHSITEDVTISAVMLREDDPGEAASMSMFSDFLQSFLKHSSSTVFDLVEEYENICGSQVNILSKIVSRATPGLQKFSKTASMLWLLQQEMVTWRLLASLYRDRIQSALEEESVFAVTAVNASEKTVVEALFQRDSLVRQSQLVVDWLESIAKDEIGEFSDNIEFYAKSVYWENTLHTLKQRQLTSYVGSVRPLVTELDPDAPIRQKMPLDDLDREDEVRLLKYLFTLIRAGMTEEAQRLCKRCGQAWRAATLEGWKLYHDPNVNGGTELEPVEGNPYRRIWKISCWRMAEDELFNRYERAIYAALSGNLKQLLPVCDTWEDTVWAYFRVMVDSLVEQEIQTSVATLDETEELPREYLGANWTLEKVFEELQATDKKRVLEENQEHYHIVQKFLILGDIDGLMDEFSKWLSKSRNNLPGHLLRFMTHLILFFRTLGLQTKEEVSIEVLKTYIQLLIREKHTNLIAFYTCHLPQDLAVAQYALFLESVTEFEQRHHCLELAKEADLDVATITKTVVENIRKKDNGEFSHHDLAPALDTGTTEEDRLKIDVIDWLVFDPAQRAEALKQGNAIMRKFLASKKHEAAKEVFVKIPQDSIAEIYNQCEEQGMESPLPAEDDNAIREHLCIRAYLEAHETFNEWFKHMNSVPQKPALIPQPTFTEKVAHEHKEKKYEMDFGIWKGHLDALTADVKEKMYNVLLFVDGGWMVDVREDAKEDHERTHQMVLLRKLCLPMLCFLLHTILHSTGQYQECLQLADMVSSERHKLYLVFSKEELRKLLQKLRESSLMLLDQGLDPLGYEIQL
# B3: CSTF3_HUMAN (protein, UniProt Q12996 2-717, looked up)
# Cleavage stimulation factor …: SGDGATEQAAEYVPEKVKKAEKKLEENPYDLDAWSILIREAQNQPIDKARKTYERLVAQFPSSGRFWKLYIEAEIKAKNYDKVEKLFQRCLMKVLHIDLWKCYLSYVRETKGKLPSYKEKMAQAYDFALDKIGMEIMSYQIWVDYINFLKGVEAVGSYAENQRITAVRRVYQRGCVNPMINIEQLWRDYNKYEEGINIHLAKKMIEDRSRDYMNARRVAKEYETVMKGLDRNAPSVPPQNTPQEAQQVDMWKKYIQWEKSNPLRTEDQTLITKRVMFAYEQCLLVLGHHPDIWYEAAQYLEQSSKLLAEKGDMNNAKLFSDEAANIYERAISTLLKKNMLLYFAYADYEESRMKYEKVHSIYNRLLAIEDIDPTLVYIQYMKFARRAEGIKSGRMIFKKAREDTRTRHHVYVTAALMEYYCSKDKSVAFKIFELGLKKYGDIPEYVLAYIDYLSHLNEDNNTRVLFERVLTSGSLPPEKSGEIWARFLAFESNIGDLASILKVEKRRFTAFKEEYEGKETALLVDRYKFMDLYPCSASELKALGYKDVSRAKLAAIIPDPVVAPSIVPVLKDEVDRKPEYPKPDTQQMIPFQPRHLAPPGLHPVPGGVFPVPPAAVVLMKLLPPPICFQGPFVQVDELMEIFRRCKIPNTVEEAVRIITGGAPELAVEGNGPVESNAVLTKAVKRPNEDSDEDEEKGAVVPPVHDIYRARQQKRIR
# B4: P66A_HUMAN (protein, UniProt Q86YP4 1-633, looked up)
# Transcriptional repressor …: MTEEACRTRSQKRALERDPTEDDVESKKIKMERGLLASDLNTDGDMRVTPEPGAGPTQGLLRATEATAMAMGRGEGLVGDGPVDMRTSHSDMKSERRPPSPDVIVLSDNEQPSSPRVNGLTTVALKETSTEALMKSSPEERERMIKQLKEELRLEEAKLVLLKKLRQSQIQKEATAQKPTGSVGSTVTTPPPLVRGTQNIPAGKPSLQTSSARMPGSVIPPPLVRGGQQASSKLGPQASSQVVMPPLVRGAQQIHSIRQHSSTGPPPLLLAPRASVPSVQIQGQRIIQQGLIRVANVPNTSLLVNIPQPTPASLKGTTATSAQANSTPTSVASVVTSAESPASRQAAAKLALRKQLEKTLLEIPPPKPPAPEMNFLPSAANNEFIYLVGLEEVVQNLLETQGRMSAATVLSREPYMCAQCKTDFTCRWREEKSGAIMCENCMTTNQKKALKVEHTSRLKAAFVKALQQEQEIEQRLLQQGTAPAQAKAEPTAAPHPVLKQVIKPRRKLAFRSGEARDWSNGAVLQASSQLSRGSATTPRGVLHTFSPSPKLQNSASATALVSRTGRHSERTVSAGKGSATSNWKKTPLSTGGTLAFVSPSLAVHKSSSAVDRQREYLLDMIPPRSIPQSATWK
# B5: SATB2_HUMAN (protein, UniProt Q9UPW6 1-733, looked up)
# DNA-binding protein SATB2: MERRSESPCLRDSPDRRSGSPDVKGPPPVKVARLEQNGSPMGARGRPNGAVAKAVGGLMIPVFCVVEQLDGSLEYDNREEHAEFVLVRKDVLFSQLVETALLALGYSHSSAAQAQGIIKLGRWNPLPLSYVTDAPDATVADMLQDVYHVVTLKIQLQSCSKLEDLPAEQWNHATVRNALKELLKEMNQSTLAKECPLSQSMISSIVNSTYYANVSATKCQEFGRWYKKYKKIKVERVERENLSDYCVLGQRPMHLPNMNQLASLGKTNEQSPHSQIHHSTPIRNQVPALQPIMSPGLLSPQLSPQLVRQQIAMAHLINQQIAVSRLLAHQHPQAINQQFLNHPPIPRAVKPEPTNSSVEVSPDIYQQVRDELKRASVSQAVFARVAFNRTQGLLSEILRKEEDPRTASQSLLVNLRAMQNFLNLPEVERDRIYQDERERSMNPNVSMVSSASSSPSSSRTPQAKTSTPTTDLPIKVDGANINITAAIYDEIQQEMKRAKVSQALFAKVAANKSQGWLCELLRWKENPSPENRTLWENLCTIRRFLNLPQHERDVIYEEESRHHHSERMQHVVQLPPEPVQVLHRQQSQPAKESSPPREEAPPPPPPTEDSCAKKPRSRTKISLEALGILQSFIHDVGLYPDQEAIHTLSAQLDLPKHTIIKFFQNQRYHVKHHGKLKEHLGSAVDVAEYKDEELLTESEENDSEEGSEEMYKVEAEEENADKSKAAPAEIDQR
# B6: ODP2_HUMAN (protein, UniProt P10515 87-647, looked up)
# Dihydrolipoyllysine-residue …: SLPPHQKVPLPSLSPTMQAGTIARWEKKEGDKINEGDLIAEVETDKATVGFESLEECYMAKILVAEGTRDVPIGAIICITVGKPEDIEAFKNYTLDSSAAPTPQAAPAPTPAATASPPTPSAQAPGSSYPPHMQVLLPALSPTMTMGTVQRWEKKVGEKLSEGDLLAEIETDKATIGFEVQEEGYLAKILVPEGTRDVPLGTPLCIIVEKEADISAFADYRPTEVTDLKPQVPPPTPPPVAAVPPTPQPLAPTPSAPCPATPAGPKGRVFVSPLAKKLAVEKGIDLTQVKGTGPDGRITKKDIDSFVPSKVAPAPAAVVPPTGPGMAPVPTGVFTDIPISNIRRVIAQRLMQSKQTIPHYYLSIDVNMGEVLLVRKELNKILEGRSKISVNDFIIKASALACLKVPEANSSWMDTVIRQNHVVDVSVAVSTPAGLITPIVFNAHIKGVETIANDVVSLATKAREGKLQPHEFQGGTFTISNLGMFGIKNFSAIINPPQACILAIGASEDKLVPADNEKGFDVASMMSVTLSCDHRVVDGAVGAQWLAEFRKYLEKPITMLL
# B7: ILF3_HUMAN (protein, UniProt Q12906 1-894, looked up)
# Interleukin enhancer-binding …: MRPMRIFVNDDRHVMAKHSSVYPTQEELEAVQNMVSHTERALKAVSDWIDEQEKGSSEQAESDNMDVPPEDDSKEGAGEQKTEHMTRTLRGVMRVGLVAKGLLLKGDLDLELVLLCKEKPTTALLDKVADNLAIQLAAVTEDKYEILQSVDDAAIVIKNTKEPPLSLTIHLTSPVVREEMEKVLAGETLSVNDPPDVLDRQKCLAALASLRHAKWFQARANGLKSCVIVIRVLRDLCTRVPTWGPLRGWPLELLCEKSIGTANRPMGAGEALRRVLECLASGIVMPDGSGIYDPCEKEATDAIGHLDRQQREDITQSAQHALRLAAFGQLHKVLGMDPLPSKMPKKPKNENPVDYTVQIPPSTTYAITPMKRPMEEDGEEKSPSKKKKKIQKKEEKAEPPQAMNALMRLNQLKPGLQYKLVSQTGPVHAPIFTMSVEVDGNSFEASGPSKKTAKLHVAVKVLQDMGLPTGAEGRDSSKGEDSAEETEAKPAVVAPAPVVEAVSTPSAAFPSDATAEQGPILTKHGKNPVMELNEKRRGLKYELISETGGSHDKRFVMEVEVDGQKFQGAGSNKKVAKAYAALAALEKLFPDTPLALDANKKKRAPVPVRGGPKFAAKPHNPGFGMGGPMHNEVPPPPNLRGRGRGGSIRGRGRGRGFGGANHGGYMNAGAGYGSYGYGGNSATAGYSQFYSNGGHSGNASGGGGGGGGGSSGYGSYYQGDNYNSPVPPKHAGKKQPHGGQQKPSYGSGYQSHQGQQQSYNQSPYSNYGPPQGKQKGYNHGQGSYSYSNSYNSPGGGGGSDYNYESKFNYSGSGGRSGGNSYGSGGASYNPGSHGGYGGGSGGGSSYQGKQGGYSQSNYNSPGSGQNYSGPPSSYQSSQGGYGRNADHSMNYQYR
# B8: SYG_HUMAN (protein, UniProt P41250 37-739, looked up)
# Glycine--tRNA ligase: SAASCPPISLPAAASRSSMDGAGAEEVLAPLRLAVRQQGDLVRKLKEDKAPQVDVDKAVAELKARKRVLEAKELALQPKDDIVDRAKMEDTLKRRFFYDQAFAIYGGVSGLYDFGPVGCALKNNIIQTWRQHFIQEEQILEIDCTMLTPEPVLKTSGHVDKFADFMVKDVKNGECFRADHLLKAHLQKLMSDKKCSVEKKSEMESVLAQLDNYGQQELADLFVNYNVKSPITGNDLSPPVSFNLMFKTFIGPGGNMPGYLRPETAQGIFLNFKRLLEFNQGKLPFAAAQIGNSFRNEISPRSGLIRVREFTMAEIEHFVDPSEKDHPKFQNVADLHLYLYSAKAQVSGQSARKMRLGDAVEQGVINNTVLGYFIGRIYLYLTKVGISPDKLRFRQHMENEMAHYACDCWDAESKTSYGWIEIVGCADRSCYDLSCHARATKVPLVAEKPLKEPKTVNVVQFEPSKGAIGKAYKKDAKLVMEYLAICDECYITEMEMLLNEKGEFTIETEGKTFQLTKDMINVKRFQKTLYVEEVVPNVIEPSFGLGRIMYTVFEHTFHVREGDEQRTFFSFPAVVAPFKCSVLPLSQNQEFMPFVKELSEALTRHGVSHKVDDSSGSIGRRYARTDEIGVAFGVTIDFDTVNKTPHTATLRDRDSMRQIRAEISELPSIVQDLANGNITWADVEARYPLFEGQETGKKETIEE
# Test system: KDM4A-I71AzF
# Test: CASI: photo-crosslinking with HEK293T cell extracts, StrepTactin enrichment and LC-MS/MS proteomics;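 also: lysates from HEK293T cells pretreated with a KDM4 inhibitor to raise proteome methylation, affinity-purified after ±UV, gel-resolved, trypsin-digested, with exclusive unique peptides per protein averaged per condition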
# Format: binding, human
# Conditions: sheet "Final results but with 0.01"
row,Molecule,Fold change (+UV/-UV)
1,B1,0.5
2,B2,2
3,B3,0
4,B4,1.5
5,B5,1
6,B6,1
7,B7,0.5
8,B8,1
